Assay results as given in patent US20190359653A1 (Genentech, published 2019).

T1: hFZD8 CRD-Fc (human, UniProt Q9H461 28-158, limits assumed)
T1 construct: domain: CRD; bought (R&D Systems); not shown: Fc part
T1 sequence (looked up): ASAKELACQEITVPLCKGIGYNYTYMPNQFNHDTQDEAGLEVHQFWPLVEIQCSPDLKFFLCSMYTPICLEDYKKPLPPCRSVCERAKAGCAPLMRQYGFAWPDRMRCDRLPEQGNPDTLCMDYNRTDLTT


biological target: T1, hFZD8 CRD-Fc; test: spot phage ELISA

signal:noise ratio	Binder
3.1	ACSYVIDLWNQCLT [SEQ ID NO 4]
1.1	LPSDDLEFWCHVMY (also called Fz7-21) [SEQ ID NO 13]
1.6	YEHLHDLMDLIRPW (also called Fz7-07) [SEQ ID NO 1]

biological target: T2, hFZD7 CRD-Fc (human, UniProt O75084 33-185); test: spot phage ELISA

signal:noise ratio	Binder
26.8	ACSYVIDLWNQCLT [SEQ ID NO 4]
27.8	FWMQLQDGFAIWFP [SEQ ID NO 15]
24.5	LPSDDLEFWCHVMY (also called Fz7-21) [SEQ ID NO 13]
23.2	YEHLHDLMDLIRPW (also called Fz7-07) [SEQ ID NO 1]

biological target: T2, hFZD7 CRD-Fc; test: spot phage ELISA; remark: another data set of the same source

S/N	S/W	Binder
50.8	2.7	AAADDLAAWCHVVY [SEQ ID NO 98]
53	2.9	VPADALAVWCDVMY [SEQ ID NO 66]
46.7	3.1	LPADDLAAWCHVMY [SEQ ID NO 84]
44.8	2.5	VASDDLASWCHVVY [SEQ ID NO 86]
44.5	2.3	AAADDVASWCHVMY [SEQ ID NO 87]
52.7	3.1	VPADDLAFWCHVMY [SEQ ID NO 67]
23.8	2.8	LPADDLAFWCDVMY [SEQ ID NO 92]
48.2	3.1	AAADDLAFWCHVMY [SEQ ID NO 80]
51.3	3	APSDDLAAWCHVMY [SEQ ID NO 73]
45	2.5	APSDDLAFWCHVVY [SEQ ID NO 97]
48.1	3	LASDDLEFWCHVMY [SEQ ID NO 81]
53.2	3	VPSDDLAFWCHVMY [SEQ ID NO 65]
47.3	2.8	VPSADLETWCHVMY [SEQ ID NO 83]
50.6	3.2	APADDLAFWCHVVY [SEQ ID NO 74]
27.4	3.1	APSDDLAFWCDVMY [SEQ ID NO 91]
52.2	3.1	VPSDDLASWCHVMY [SEQ ID NO 68]

S/N	S/W	Binder
51.6	3	APADDLEFWCHVMY [SEQ ID NO 72]
53.9	2.9	APADDLESWCHVMY [SEQ ID NO 96]
40.7	3	VAADDLAFWCDVMY [SEQ ID NO 88]
49.7	3.1	AASDDLAFWCHVMY [SEQ ID NO 77]
52	3.3	APSDDLASWCHVMY [SEQ ID NO 71]
53.2	3.1	APADDLEFWCHVVY [SEQ ID NO 64]
48.6	2.9	LPSADLESWCHVMY [SEQ ID NO 79]
44.9	2.9	PPADDLAFWCDVMY [SEQ ID NO 85]
33.8	3	APADDLAFWCDVMY [SEQ ID NO 90]
36.3	1.9	APADDLEFWCHAMY [SEQ ID NO 89]
49.2	2.9	VPADDLASWCDVMY [SEQ ID NO 78]
52.2	2.9	VPSADLESWCHVMY [SEQ ID NO 69]
8.5	2.7	AAADDLAFWCDVMY [SEQ ID NO 93]
52.1	3.1	AASDDLEAWCHVMY [SEQ ID NO 70]
49.8	2.7	VPSDDLEAWCDVMY [SEQ ID NO 76]
2.1	0.1	VPSDDLEFWCAVMY [SEQ ID NO 95]

Continued, binder first:

Binder	S/N	S/W
VAADALEFWCHVMY [SEQ ID NO 55]	54.2	3
LPAADLAAWCHVMY [SEQ ID NO 82]	48	3
AAADDLEAWCAVMY [SEQ ID NO 59]	53.6	3.1
APSDDLEFWCHVMY [SEQ ID NO 44]	58.3	3.1
APADDLEAWCHVMY [SEQ ID NO 45]	58.1	3.1
APADDLASWCHVMY [SEQ ID NO 61]	53.5	3.2
AAADDLEVWCHVMY [SEQ ID NO 54]	54.4	3.1
APADDLAFWCHVMY [SEQ ID NO 51]	55.1	3
AASDDLESWCHVMY [SEQ ID NO 50]	55.6	2.9
VPADDLASWCHVMY [SEQ ID NO 63]	53.4	3.1
APADDVEFWCHVMY [SEQ ID NO 43]	58.6	3.1
AAADDLAAWCDVMY [SEQ ID NO 57]	54	3.1
LPADDLAVWCDVMY [SEQ ID NO 52]	54.9	3.1
AAADDLEFWCHVMY [SEQ ID NO 48]	56.1	3.1
LPSDDLESWCHVMY [SEQ ID NO 53]	54.5	3
APSDDLEFWCHAMY [SEQ ID NO 46]	57.2	3.1
VASDDLEAWCHVMY [SEQ ID NO 47]	57	3.1
VASDDLEFWCHVMY [SEQ ID NO 58]	54	3.2
AASDDLAAWCHVMY [SEQ ID NO 49]	55.7	3
APSDDLAAWCHVVY [SEQ ID NO 56]	54	2.9
LAADDLESWCHVMY [SEQ ID NO 60]	53.5	3
APSDDLEAWCDVMY [SEQ ID NO 75]	50.2	2.7
VASDDLASWCHAMY [SEQ ID NO 62]	53.5	3
APSDDVAFWCHVMY [SEQ ID NO 42]	58.6	3.1
VAADDLAAWCHVMY [SEQ ID NO 39]	60.7	3.4
